From patent US20230272056A1 (Merck Sharp & Dohme, published 2023) come the findings set out here.

The labels stand for the following.
B1: VH G57D (27BIT) (Fab, V domains shown)
VH: EVQLVQSGAEVKKPGASVKVSCKASGYTFTSYWMHWVRQAPGQGLEWMGRIDPQSGDIKYAQKFQGRATLTVDTSTSTAYMELSRLRSDDTAVYYCARWDYGGYFDVWGQGTLVTVSS
VL: DIQMTQSPSSLSASVGDRVTITCRASQDITNYLNWYQQKPGKAVKLLIYYTSRLHSGVPSRFSGSGSGTDYTLTISSLQPEDFATYFCQQGDTLPWTFGQGTKLEIKR
notes: Light chain: parental 20E6 LC, implied
B2: VH G57E (63BIT) (Fab, V domains shown)
VH: EVQLVQSGAEVKKPGASVKVSCKASGYTFTSYWMHWVRQAPGQGLEWMGRIDPQSGEIKYAQKFQGRATLTVDTSTSTAYMELSRLRSDDTAVYYCARWDYGGYFDVWGQGTLVTVSS
VL: DIQMTQSPSSLSASVGDRVTITCRASQDITNYLNWYQQKPGKAVKLLIYYTSRLHSGVPSRFSGSGSGTDYTLTISSLQPEDFATYFCQQGDTLPWTFGQGTKLEIKR
notes: as for B1
B3: VL T93Y (58BIT) (Fab, V domains shown)
VH: EVQLVQSGAEVKKPGASVKVSCKASGYTFTSYWMHWVRQAPGQGLEWMGRIDPQSGGIKYAQKFQGRATLTVDTSTSTAYMELSRLRSDDTAVYYCARWDYGGYFDVWGQGTLVTVSS
VL: DIQMTQSPSSLSASVGDRVTITCRASQDITNYLNWYQQKPGKAVKLLIYYTSRLHSGVPSRFSGSGSGTDYTLTISSLQPEDFATYFCQQGDYLPWTFGQGTKLEIKR
B4: VL T51Y (48BIT) (Fab, V domains shown)
VH: EVQLVQSGAEVKKPGASVKVSCKASGYTFTSYWMHWVRQAPGQGLEWMGRIDPQSGGIKYAQKFQGRATLTVDTSTSTAYMELSRLRSDDTAVYYCARWDYGGYFDVWGQGTLVTVSS
VL: DIQMTQSPSSLSASVGDRVTITCRASQDITNYLNWYQQKPGKAVKLLIYYYSRLHSGVPSRFSGSGSGTDYTLTISSLQPEDFATYFCQQGDTLPWTFGQGTKLEIKR
B5: VL S52Y (49BIT) (Fab, V domains shown)
VH: EVQLVQSGAEVKKPGASVKVSCKASGYTFTSYWMHWVRQAPGQGLEWMGRIDPQSGGIKYAQKFQGRATLTVDTSTSTAYMELSRLRSDDTAVYYCARWDYGGYFDVWGQGTLVTVSS
VL: DIQMTQSPSSLSASVGDRVTITCRASQDITNYLNWYQQKPGKAVKLLIYYTYRLHSGVPSRFSGSGSGTDYTLTISSLQPEDFATYFCQQGDTLPWTFGQGTKLEIKR
B6: VL T30Y (44BIT) (Fab, V domains shown)
VH: EVQLVQSGAEVKKPGASVKVSCKASGYTFTSYWMHWVRQAPGQGLEWMGRIDPQSGGIKYAQKFQGRATLTVDTSTSTAYMELSRLRSDDTAVYYCARWDYGGYFDVWGQGTLVTVSS
VL: DIQMTQSPSSLSASVGDRVTITCRASQDIYNYLNWYQQKPGKAVKLLIYYTSRLHSGVPSRFSGSGSGTDYTLTISSLQPEDFATYFCQQGDTLPWTFGQGTKLEIKR
B7: VL S56Y (53BIT) (Fab, V domains shown)
VH: EVQLVQSGAEVKKPGASVKVSCKASGYTFTSYWMHWVRQAPGQGLEWMGRIDPQSGGIKYAQKFQGRATLTVDTSTSTAYMELSRLRSDDTAVYYCARWDYGGYFDVWGQGTLVTVSS
VL: DIQMTQSPSSLSASVGDRVTITCRASQDITNYLNWYQQKPGKAVKLLIYYTSRLHYGVPSRFSGSGSGTDYTLTISSLQPEDFATYFCQQGDTLPWTFGQGTKLEIKR

One experiment deals with T1, human LAP-TGFB1 Fc fusion (human).
T1 construct: also called human LAP-TGFβ1-Fc; human LAP-TGFβ-Fc isoform 1
T1 sequence (chain, as listed by the source limits assumed): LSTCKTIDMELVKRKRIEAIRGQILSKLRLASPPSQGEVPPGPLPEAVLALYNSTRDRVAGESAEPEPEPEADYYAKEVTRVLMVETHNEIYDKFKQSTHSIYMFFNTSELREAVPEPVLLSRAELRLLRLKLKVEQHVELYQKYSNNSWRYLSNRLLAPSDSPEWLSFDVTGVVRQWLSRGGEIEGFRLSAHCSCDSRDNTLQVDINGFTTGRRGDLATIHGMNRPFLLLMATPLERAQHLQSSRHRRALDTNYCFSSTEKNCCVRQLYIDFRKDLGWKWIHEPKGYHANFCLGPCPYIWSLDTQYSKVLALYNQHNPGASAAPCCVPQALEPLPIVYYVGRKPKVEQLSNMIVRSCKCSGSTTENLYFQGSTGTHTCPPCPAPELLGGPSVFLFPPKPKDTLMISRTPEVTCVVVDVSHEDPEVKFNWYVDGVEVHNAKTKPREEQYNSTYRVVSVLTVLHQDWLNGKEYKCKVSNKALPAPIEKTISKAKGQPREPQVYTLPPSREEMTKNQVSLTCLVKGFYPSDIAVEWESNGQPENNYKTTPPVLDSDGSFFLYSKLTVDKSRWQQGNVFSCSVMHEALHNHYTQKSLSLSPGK
Put plainly: BLI off-rate screen. The protocol:
The Fab mutants including a positive control, 20E6 Fab, and a negative control Fab (Molecular Innovations, catalog HU-FAB-4510) were diluted to 200 nM in assay buffer and loaded to FAB2G sensors for 180 seconds followed by a one-hour incubation at room temperature in assay buffer to equilibrate the tips. The Fab loaded sensors were assessed for binding with 100 nM human LAP-TGFβ for 180 seconds followed by a 180 second dissociation phase in assay buffer on a ForteBio HTX (software version 9.0.0.66). Non-specific binding to the negative control Fab was subtracted and the binding sensorgrams were aligned to the start of the association phase on the X and Y axis. The Fab binding was fit with the 1:1 binding model, dissociation phase only, with local fitting using ForteBio Data Analysis 9.0 software.
As for B1, the Binding response was determined as 0.582 nm, the Fold change is 1.3 fold and the koff was 0.0337 s⁻¹.

B2 came in with a Binding response of 0.69 nm, a Fold change of 1.1 fold and a koff of 0.0393 s⁻¹.

The target in a further experiment is T1, human LAP-TGFB1 Fc fusion. Briefly: BLI off-rate screen. The source holds these as a separate data set. The method in brief:
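Tyrosine-substituted CDR Fab variants loaded at 200 nM on FAB2G biosensors, equilibrated 1 h at RT, then exposed to 100 nM human LAP-TGFβ1 for 180 s and dissociated 180 s. Off-rate from 1:1 model fit of dissociation phase only, after negative-control Fab subtraction.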
B3 registered a Binding response of 0.586 nm, a Fold change of 1.5 fold and a koff of 0.0273 s⁻¹.

For B4, the Binding response was determined as 0.204 nm, the Fold change was 0.8 fold and the koff came out at 0.0508 s⁻¹.

Turning to B5, the Binding response was 0.431 nm, the Fold change stood at 1 fold and the koff was 0.0409 s⁻¹.

B6 had a Binding response of 0.472 nm, a Fold change of 2.6 fold and a koff of 0.0162 s⁻¹.

Regarding B7, the Binding response was 0.344 nm, the Fold change is 1.3 fold and the off-rate constant (koff) worked out at 0.0324 s⁻¹.
